Reference: US20180057604A1 (Genentech, published 2018)
Positions count from the first letter of the chain named. Names and notes keep the numbering of the source. Like-named read-outs stand apart in the source and are kept apart here.

What was measured:
[1] = biological target: T1, human TfR extracellular domain with N-terminal His tag (human, UniProt P02786 89-760); experiment: ELISA, IgG
T1 construct: Biotinylated in some assays; also called huTfR; HuTfR
Target sequence in this assay (P02786 89-760 G142S): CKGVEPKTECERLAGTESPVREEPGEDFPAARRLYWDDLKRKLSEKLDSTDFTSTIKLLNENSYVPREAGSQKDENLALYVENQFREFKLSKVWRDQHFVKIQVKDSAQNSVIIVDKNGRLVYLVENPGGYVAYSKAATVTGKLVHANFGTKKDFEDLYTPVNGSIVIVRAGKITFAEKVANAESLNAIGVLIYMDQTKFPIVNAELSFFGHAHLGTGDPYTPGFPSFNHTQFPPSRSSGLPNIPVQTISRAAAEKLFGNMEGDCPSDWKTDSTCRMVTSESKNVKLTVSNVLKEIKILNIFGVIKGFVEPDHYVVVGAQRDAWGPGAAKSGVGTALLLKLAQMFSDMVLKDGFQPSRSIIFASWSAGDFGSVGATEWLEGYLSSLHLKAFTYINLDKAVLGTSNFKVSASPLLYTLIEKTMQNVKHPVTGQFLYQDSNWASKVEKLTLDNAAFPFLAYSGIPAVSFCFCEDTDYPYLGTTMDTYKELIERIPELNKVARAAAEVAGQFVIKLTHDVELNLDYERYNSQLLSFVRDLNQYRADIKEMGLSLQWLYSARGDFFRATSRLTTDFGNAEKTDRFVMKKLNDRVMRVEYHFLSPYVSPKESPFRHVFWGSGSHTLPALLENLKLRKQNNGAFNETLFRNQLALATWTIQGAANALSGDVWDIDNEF
Protocol: (§1) Affinity variants were generated by making individual alanine substitutions in CDR-L3 or CDR-H3 using standard techniques. These variants were screened as IgG by ELISA and SPR to identify positions important for binding to human and cyno TfR; the monovalent affinity of selected variants as Fab was also determined. […] Plates were washed with PBS/0.05% Tween 20 and blocked using Superblock blocking buffer in PBS (Thermo Scientific, Hudson, N.H.). Supernatants containing expressed IgG were diluted serially 1:5 and added to the plate for 1 h. […] Plates were washed with PBS/0.05% Tween 20 and 1:1000 diluted HRP-Goat-anti kappa (Southern Biotech) was added the plate and incubated for 1 h at room temperature. Plates were washed with PBS/0.05% Tween 20 and detected using TMB substrate (BioFX Laboratories, Owings Mills).

[2] = biological target: T2, cyno TfR extracellular domain (analogous construct to human TfR ecd) (cynomolgus monkey, UniProt Q5RDH6 87-760 (Pongo abelii entry)); experiment: ELISA, IgG
T2 construct: also called cynoTfR ecd
T2 chain: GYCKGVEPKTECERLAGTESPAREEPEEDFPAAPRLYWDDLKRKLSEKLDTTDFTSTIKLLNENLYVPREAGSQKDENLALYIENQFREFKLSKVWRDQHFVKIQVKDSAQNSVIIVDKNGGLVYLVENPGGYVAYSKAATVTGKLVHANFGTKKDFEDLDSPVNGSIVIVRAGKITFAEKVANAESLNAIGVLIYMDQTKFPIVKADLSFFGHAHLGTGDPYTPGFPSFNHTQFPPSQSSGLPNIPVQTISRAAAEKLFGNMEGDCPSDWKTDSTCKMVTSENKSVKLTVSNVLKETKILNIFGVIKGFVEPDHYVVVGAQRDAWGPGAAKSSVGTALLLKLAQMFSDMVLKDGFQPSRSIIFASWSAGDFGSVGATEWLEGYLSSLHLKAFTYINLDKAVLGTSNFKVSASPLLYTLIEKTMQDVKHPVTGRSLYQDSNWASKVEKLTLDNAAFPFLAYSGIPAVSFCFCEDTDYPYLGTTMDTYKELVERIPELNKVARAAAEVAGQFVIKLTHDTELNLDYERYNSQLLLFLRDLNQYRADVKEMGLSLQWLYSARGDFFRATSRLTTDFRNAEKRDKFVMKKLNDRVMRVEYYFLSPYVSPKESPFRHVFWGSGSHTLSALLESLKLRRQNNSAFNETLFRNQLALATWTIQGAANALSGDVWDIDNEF
Protocol: as §1

[3] = biological target: T1, human TfR extracellular domain with …; experiment: SPR SCK 1:1 fit, IgG
Target sequence in this assay (P02786 89-760 G142S): as the sequence (P02786 89-760 G142S) above
Protocol: (§2) Antibody affinities were measured using surface plasmon resonance (“SPR”) (Biacore™, GE Healthcare). Anti-His antibody (Qiagen) was coupled onto four different flow cells of a BIACORE™ CM5 sensor chip (Biacore, Inc., Piscataway, N.J.) at between 6000 and 8000 RU. Immobilization was achieved by random coupling through amino groups using a protocol provided by the manufacturer. 10×HBS-P (Biacore, Inc., Piscataway, N.J.) was diluted in water and served as the dilution and running buffer. Purified human or cyno TfR was captured, followed by a 3-fold dilution series of IgG or Fab that was injected at a flow rate of 30 ml/min using the single cycle kinetics method. Affinity constants were determined using a simple 1:1 Langmuir binding model or using a steady state model when kₒₙ or koff was beyond the detection limit. The equilibrium dissociation constant (KD) was calculated as the ratio of association rate constant (kₒₙ) and dissociation rate constant (koff).
(§3) These variants were screened as IgG by ELISA and SPR to identify positions important for binding to human and cyno TfR; the monovalent affinity of selected variants as Fab was also determined. […] Plates were washed with PBS/0.05% Tween 20 and blocked using Superblock blocking buffer in PBS (Thermo Scientific, Hudson, N.H.). Supernatants containing expressed IgG were diluted serially 1:5 and added to the plate for 1 h. […] Plates were washed with PBS/0.05% Tween 20 and 1:1000 diluted HRP-Goat-anti kappa (Southern Biotech) was added the plate and incubated for 1 h at room temperature. Plates were washed with PBS/0.05% Tween 20 and detected using TMB substrate (BioFX Laboratories, Owings Mills). Binding was also assessed by SPR, as described above.

[4] = biological target: T2, cyno TfR extracellular domain …; experiment: SPR SCK 1:1 fit, IgG
Protocol: as §2, §3

[5] = biological target: T1, human TfR extracellular domain with …; experiment: SPR steady state, IgG
Target sequence in this assay (P02786 89-760 G142S): as the sequence (P02786 89-760 G142S) above
Protocol: as §2, §3

[6] = biological target: T2, cyno TfR extracellular domain …; experiment: SPR steady state, IgG
Protocol: as §2, §3

[7] = biological target: T1, human TfR extracellular domain with …; experiment: ELISA
Target sequence in this assay (P02786 89-760 G142S): as the sequence (P02786 89-760 G142S) above

[8] = biological target: T3, human TfR, full length, on cells (human, UniProt P02786 1-760); experiment: FACS, 293 cells, 1 uM holo-Tf
T3 construct: also called human TfR transiently expressed in 293 cells; TfR on HEL cells
Protocol: (§4) Briefly, FACS analysis was performed using 293 cells transfected with full length human or cyno TfR using lipofectamin 2000 plus (Invitrogen) 48-72 h before FACS analysis. […] Cells were washed twice with FACS buffer, 50 μl of PE-Goat-anti-murine Fcγ (Jackson ImmunoResearch) was added to cells and they were incubated on ice for 30 min. Cells were washed with FACS buffer and resuspended in 100 μl FACS buffer for analysis.

[9] = biological target: T4, BACE1 in primary mouse cortical neurons (mouse, UniProt P56818 46-501); experiment: cell-based or functional assay
T4 sequence (P56818 46-501): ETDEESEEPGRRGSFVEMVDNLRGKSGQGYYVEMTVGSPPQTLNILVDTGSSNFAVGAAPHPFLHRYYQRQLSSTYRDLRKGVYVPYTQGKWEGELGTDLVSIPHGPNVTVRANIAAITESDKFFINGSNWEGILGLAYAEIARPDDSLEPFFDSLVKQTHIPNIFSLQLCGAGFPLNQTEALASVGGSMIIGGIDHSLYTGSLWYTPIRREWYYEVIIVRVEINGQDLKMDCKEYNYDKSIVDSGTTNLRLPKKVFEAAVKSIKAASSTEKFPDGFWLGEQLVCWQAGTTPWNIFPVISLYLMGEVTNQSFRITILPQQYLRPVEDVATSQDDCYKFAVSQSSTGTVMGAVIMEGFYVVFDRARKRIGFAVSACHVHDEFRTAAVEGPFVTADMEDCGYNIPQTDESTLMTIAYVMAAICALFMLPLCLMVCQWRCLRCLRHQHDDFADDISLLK

human BACE1 ECD [10] = biological target: T5, human BACE1 ECD; experiment: Octet, pH 5.0;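 further: antibodies captured on anti-human capture sensor tips, dissociation monitored in PBS with BSA buffer, kinetics fitted with a one-to-one binding model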
T5 construct: analyte of the Octet assay (200 nM) and enzyme of the first short substrate assay; also called human BACE1 extracellular domain
T5 sequence (single chain, as listed by the source limits assumed): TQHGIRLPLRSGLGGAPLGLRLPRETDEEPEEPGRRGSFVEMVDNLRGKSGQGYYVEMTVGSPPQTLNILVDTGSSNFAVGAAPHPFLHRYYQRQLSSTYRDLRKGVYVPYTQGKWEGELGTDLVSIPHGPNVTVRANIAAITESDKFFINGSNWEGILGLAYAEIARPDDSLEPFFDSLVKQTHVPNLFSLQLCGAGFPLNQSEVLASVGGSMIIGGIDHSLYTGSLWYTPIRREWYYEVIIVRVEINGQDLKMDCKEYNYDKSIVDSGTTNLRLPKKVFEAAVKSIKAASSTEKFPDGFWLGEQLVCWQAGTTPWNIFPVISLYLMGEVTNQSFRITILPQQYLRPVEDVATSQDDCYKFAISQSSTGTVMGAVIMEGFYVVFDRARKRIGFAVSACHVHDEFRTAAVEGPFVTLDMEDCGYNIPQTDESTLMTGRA
Protocol: (§5) Anti-BACE1 antibodies were loaded onto anti-human capture (AHC) sensors (tips) followed by 60 seconds baseline in assay buffer. […] Tips were transferred to assay buffer for 5 minutes, 30 minutes, or 120 minutes depending on the off-rate, for off-rate measurement. Assay buffer was either PBS+0.1% BSA, pH 7.5; or PBS+0.1% BSA, pH 5.0. Kinetics were analyzed using a 1:1 binding model.

murine BACE1 ECD [11] = biological target: T6, murine BACE1 ECD; experiment: Octet, pH 5.0;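 further: antibodies captured on anti-human capture sensor tips, dissociation monitored in PBS with BSA buffer, kinetics fitted with a one-to-one binding model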
T6 construct: analyte of the Octet assay (200 nM) and enzyme of the first short substrate assay
T6 sequence (single chain, as listed by the source limits assumed): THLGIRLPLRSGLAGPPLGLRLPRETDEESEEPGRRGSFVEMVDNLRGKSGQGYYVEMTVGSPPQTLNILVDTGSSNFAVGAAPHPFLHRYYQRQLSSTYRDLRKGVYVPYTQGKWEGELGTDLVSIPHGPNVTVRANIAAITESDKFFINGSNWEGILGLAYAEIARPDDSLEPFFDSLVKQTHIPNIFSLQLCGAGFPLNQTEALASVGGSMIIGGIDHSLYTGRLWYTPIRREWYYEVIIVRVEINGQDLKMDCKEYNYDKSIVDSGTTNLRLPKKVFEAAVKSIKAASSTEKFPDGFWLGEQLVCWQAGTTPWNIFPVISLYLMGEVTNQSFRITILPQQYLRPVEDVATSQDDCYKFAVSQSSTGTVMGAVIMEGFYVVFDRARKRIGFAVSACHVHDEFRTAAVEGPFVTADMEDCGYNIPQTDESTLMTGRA
Protocol: as §5

human BACE1 ECD [12] = biological target: T5, human BACE1 ECD; experiment: Octet, pH 7.5;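 further: antibodies captured on anti-human capture sensor tips, dissociation monitored in PBS with BSA, Kd obtained from kinetic fit to a one-to-one binding model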
Protocol: as §5

murine BACE1 ECD [13] = biological target: T6, murine BACE1 ECD; experiment: Octet, pH 7.5;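 further: antibodies captured on anti-human capture sensor tips, dissociation monitored in PBS with BSA, Kd obtained from kinetic fit to a one-to-one binding model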
Protocol: as §5

[14] = biological target: T7, human BACE1 (R&D Systems) (human, UniProt P56817); experiment: SPR (Biacore)
T7 construct: recombinant, commercial (R&D Systems)
T7 sequence (P56817 22-457 limits assumed): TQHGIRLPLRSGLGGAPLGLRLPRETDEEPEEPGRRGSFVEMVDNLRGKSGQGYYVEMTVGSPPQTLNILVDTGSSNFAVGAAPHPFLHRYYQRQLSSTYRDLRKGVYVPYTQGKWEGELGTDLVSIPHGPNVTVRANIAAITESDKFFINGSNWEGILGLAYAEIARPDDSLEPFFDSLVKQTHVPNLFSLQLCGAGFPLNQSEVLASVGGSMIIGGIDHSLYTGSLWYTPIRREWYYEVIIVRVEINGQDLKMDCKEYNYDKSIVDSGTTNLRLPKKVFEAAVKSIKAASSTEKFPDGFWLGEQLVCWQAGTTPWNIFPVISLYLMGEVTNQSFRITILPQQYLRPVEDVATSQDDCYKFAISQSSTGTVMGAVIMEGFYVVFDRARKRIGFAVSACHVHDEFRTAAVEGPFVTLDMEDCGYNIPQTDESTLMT
Protocol: Binding affinities of certain anti-BACE1 IgGs were measured by surface plasmon resonance (SRP) using a BIAcore™-T100 instrument. […] Association rates (kon) and dissociation rates (koff) were calculated using a simple one-to-one Langmuir binding model (BIAcore Evaluation Software version 3.2). The equilibrium dissociation constant (KD) was calculated as the ratio koff/kon.

[15] = biological target: T4, BACE1 in primary mouse cortical neurons; experiment: cell-based or functional assay; remark: listed apart in the source
[16] = biological target: T1, human TfR extracellular domain with …; experiment: SPR, Fab
Protocol: as §2, §3

[17] = biological target: T2, cyno TfR extracellular domain …; experiment: SPR, Fab
Protocol: as §2, §3

[18] = biological target: T2, cyno TfR extracellular domain …; experiment: SPR, KD on cyno TfR over KD on human TfR
Protocol: as §2
(§6) In both cases, the SPR experiments were performed as described above.

[19] = biological target: T1, human TfR extracellular domain with …; experiment: SPR, TfR captured by anti-His, Fab injected;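 further: single cycle kinetics with a Fab dilution series, fitted by a one-to-one Langmuir model or a steady state model, KD taken as koff over kon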
Target sequence in this assay (P02786 89-760 G142S): as the sequence (P02786 89-760 G142S) above

[20] = biological target: T2, cyno TfR extracellular domain …; experiment: SPR, TfR captured by anti-His, Fab injected;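 further: single cycle kinetics with a Fab dilution series, fitted by a one-to-one Langmuir model or a steady state model, KD taken as koff over kon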
[21] = biological target: T1, human TfR extracellular domain with …; experiment: SPR, IgG;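 further: His-tagged TfR captured via immobilized anti-His antibody on a CM5 chip, antibody injected in 3-fold dilution series by single cycle kinetics, 1:1 Langmuir or steady-state fit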
Target sequence in this assay (P02786 89-760 G142S): as above
Protocol: as §2, §6

[22] = biological target: T2, cyno TfR extracellular domain …; experiment: SPR, IgG;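 further: His-tagged TfR captured via immobilized anti-His antibody on a CM5 chip, antibody injected in 3-fold dilution series by single cycle kinetics, 1:1 Langmuir or steady-state fit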
Protocol: as §2, §6

[23] = biological target: T1, human TfR extracellular domain with …; experiment: ELISA, IgG; remark: listed apart in the source
Protocol: as §1

[24] = biological target: T2, cyno TfR extracellular domain …; experiment: ELISA, IgG
Protocol: as §1

[25] = biological target: T1, human TfR extracellular domain with …; experiment: SPR SCK 1:1 fit, IgG; remark: listed apart in the source
Protocol: as §2, §3

[26] = biological target: T2, cyno TfR extracellular domain …; experiment: SPR SCK 1:1 fit, IgG
Protocol: as §2, §3

[27] = biological target: T1, human TfR extracellular domain with …; experiment: ELISA, immobilized huTfR, with and without 6.3 uM holo-Tf
Protocol: Plates were washed with PBS/0.05% Tween 20 and blocked using Superblock blocking buffer in PBS (Thermo Scientific, Hudson, N.H.). […] Plates were washed with PBS/0.05% Tween 20 and 1:1000 diluted HRP-Goat-anti human Fcγ (Jackson ImmunoResearch) was added to the plate and incubated for 1 h at room temperature. Plates were washed with PBS/0.05% Tween 20 and detected using TMB substrate (BioFX Laboratories, Owings Mills).

[28] = biological target: T3, human TfR, full length, on cells; experiment: FACS, 293 cells, 1 uM holo-Tf; remark: listed apart in the source
Protocol: as §4

B1: G93A (antibody, V domains shown)
VH: EVQLVQSGAEVKKPGASVKVSCKASGYTFTSYWMHWVRQAPGQRLEWIGEINPTNGRTNYIEKFKSRATLTVDKSASTAYMELSSLRSEDTAVYYCARGTRAYHYWGQGTMVTVSS
VL: DIQMTQSPSSLSASVGDRVTITCRASDNLYSNLAWYQQKPGKSPKLLVYDATNLADGVPSRFSGSGSGTDYTLTISSLQPEDFATYYCQHFWATPLTFGQGTKVEIK
notes: also called 15G11.v5 G93A (CDR-L3) IgG
Question: Which EC50 [1] does the source give for B1 here?
Answer: The EC50 was 0.0145 µg/mL.

Question: And the EC50 [2]?
Answer: Its EC50 is 0.0508 µg/mL.

Question: What about the Kd [3] of the same binder?
Answer: Its Kd is 40 nM.

Question: What about the Kd [4] of the same binder?
Answer: Its Kd is 61 nM.

Question: What about the Kd [5] of the same binder?
Answer: Its Kd is 150 nM.

Question: And the Kd [6]?
Answer: Its Kd is 412 nM.

B2: P95A (antibody, V domains shown)
VH: B1 VH
VL: B1 VL with A93G, P95A
notes: also called 15G11.v5 P95A (CDR-L3) IgG
Question: How did the EC50 [1] turn out when B2 was run?
Answer: Its EC50 is 0.0106 µg/mL.

Question: And the EC50 [2]?
Answer: Its EC50 is 0.0406 µg/mL.

Question: And the Kd [3]?
Answer: The Kd was 29 nM.

Question: And the Kd [4]?
Answer: The Kd was 57 nM.

Question: And the Kd [5]?
Answer: The Kd was 94 nM.

Question: And the Kd [6]?
Answer: Its Kd is 258 nM.

B3: Q89A (antibody, V domains shown)
VH: B1 VH
VL: B1 VL with Q89A, A93G
notes: also called 15G11.v5 Q89A (CDR-L3) IgG
Question: What does the source list for B3?
Answer: EC50 [1]: 0.03 µg/mL; EC50 [2]: 0.506 µg/mL; Kd [3]: 125 nM; Kd [4]: 268 nM; Kd [5]: 212 nM; Kd [6]: 591 nM

B4: 15D2 (antibody, V domains shown)
VH: QVQLQQSGPELVRPGVSVKISCKGSGYTVTDYAMHWVKQSHAKSLEWIGVISFYSGKTNYNQKFMGKATMTVDKSSSTAYMELARLTSEDSAIYYCARGLSGNYVMDYWGQGTSVTVSS
VL: DIVLTQSPASLAVSLGQRATISCRASESVDSYGNSFMHWYQQKPGQPPKLLIYRASNLESGIPARFSGSGSRTDFTLTINPVEADDVATYYCQQSNEGPPTFGGGTKLEIK
notes: Mouse hybridoma antibody; also called clone 15D2
Question: What does the source list for B4?
Answer: binding result [7]: binds; binding result [8]: binds

B5: anti-BACE1 antibody 6266 (antibody, V domains shown)
VH: EVQLVQSGAEVKKPGSSVKVSCKASGGTLSGYGVSWVRQAPGQGLEWMGNIIPGFGTANYAQKFQGRVTITADESTSTAYMELSSLRSEDTAVYYCARSGGTKYGMLDVWGQGTMVTVSS
VL: EIVMTQSPATLSVSPGERATLSCRASQSVSSNLAWYQQKPGQAPRLLIYGASTRATGIPARFSGSGSGTEFTLTISSLQSEDFAVYYCQQLILWPPRTFGGGTKVEIK
notes: Fully human antibody
Question: With B5 as the binder, how does the “IC50, inhibition of Abeta x-40 production in primary mouse cortical neurons” value [9] read?
Answer: The value was 1.7 nM.

Question: And the Kd (human BACE1 ECD [10])?
Answer: Its Kd is < 0.24 nM.

Question: And the Kd (murine BACE1 ECD [11])?
Answer: Its Kd is 0.32 nM.

Question: What about the Kd (human BACE1 ECD [12]) of the same binder?
Answer: The Kd was < 0.3 nM.

Question: And the Kd (murine BACE1 ECD [13])?
Answer: The Kd was < 0.31 nM.

Question: What about the Kd [14] of the same binder?
Answer: The Kd was 1.12 nM.

Question: What about the “IC50, Abeta x-40 in mouse cortical neurons” value [15] of the same binder?
Answer: Its value is 1.66 nM.

Question: And the “maximal % inhibition of Abeta x-40” value [15]?
Answer: The value was 87%.

B6: bispecific antibody TfR^2/6266 (bispecific antibody, V domains shown)
VH 1: B1 VH
VL 1: B1 VL with W92A, A93G
VH 2: B5 VH
VL 2: B5 VL
Question: For B6, which “IC50, inhibition of Abeta x-40 production in primary mouse cortical neurons” value [9] is on record?
Answer: The value was 1.7 nM.

B7: hu7A4.v15.Fab (Fab, V domains shown)
VH: EVQLVQSGAEVKKPGASVKVSCKGSGYTFTDYAMHWVRQAPGQGLEWMGGISTYFGRTNYNQKFKGRVTMTVDTSISTAYMELSRLRSDDTAVYYCARGLSGNYVMDYWGQGTTVTVSS
VL: DIVMTQSPDSLAVSLGERATINCRASESVDSYGNSFMHWYQQKPGQPPKLLIYRASNLESGVPDRFSGSGSRTDFTLTISSLQAEDVAVYYCQQSNEAPPTFGQGTKLEIK
notes: Fab
Question: Which results are given for B7?
Answer: Kd [16]: 0.4 nM; Kd [17]: 4.3 nM; Cy/hu ratio [18]: 11; koff [19]: 0.000317 s⁻¹; kon [19]: 910000 M⁻¹ s⁻¹; koff [20]: 0.00162 s⁻¹; kon [20]: 378000 M⁻¹ s⁻¹

B8: hu7A4.v15 IgG (antibody, V domains shown)
VH: B7 VH
VL: B7 VL
notes: Human IgG; also called humanized 7A4.v15
Question: B8 was tested. Which Kd [21] did it give?
Answer: Its Kd is 0.561 nM.

Question: And the Kd [22]?
Answer: The Kd was 7.8 nM.

Question: And the EC50 [23]?
Answer: Its EC50 is 0.0148 µg/mL.

Question: And the EC50 [24]?
Answer: The EC50 was 0.0142 µg/mL.

Question: What about the Kd [25] of the same binder?
Answer: The Kd was 0.58 nM.

Question: And the Kd [26]?
Answer: Its Kd is 7.8 nM.

Question: And the “EC50 (read off the curve)” value [27]?
Answer: Its value is ~0.005 µg/mL.

B9: Q90A (Fab, V domains shown)
VH: B7 VH
VL: B7 VL with Q94A
notes: also called 7A4.v15 Q90A (CDR-L3) Fab
Question: For B9, which Kd [16] is on record?
Answer: Its Kd is 130 nM.

Question: What about the Kd [17] of the same binder?
Answer: The Kd was 760 nM.

B10: 4C2 (antibody, V domains shown)
VH: QVQLQQPGSELVRPGASVKLSCKASGYTFTSYWMHWVKQRHGQGLEWIGNIYPGSGSTKYDEKFKSKGTLTVDTSSSTAYMHLSSLTSEDSAVYYCTRGGYDSRAWFAHWGQGTLVTVSA
VL: DIVLTQSPASLAVSLGQRATISCRARQSVSTSSYSFMHWYQQKPGQPPKLLIKYASIQESGVPARFSGSGSGTDFTLNILPVEEEDTATYYCQHTWEIPFTFGSGTNLEIK
notes: Mouse hybridoma antibody; also called clone 4C2
Question: Does B10 bind [7]?
Answer: Result: binds

Question: Does B10 bind [8]?
Answer: Result: binds

B11: 13C3 (antibody, V domains shown)
VH: QVQLQQPGAELVKPGASVKLSCKASGYTFASYWMHWVKQRPGQGLEWIGEINPINGRTNYSEKFKKKATLTVDKSSSTAYMQLSSLTSEDSAVYYCARGTRAYHYWGQGTSVTVSS
VL: DIQMTQSPASLSVSVGETVTITCRASDNIYSNLAWYQQKQGKSPQLLVYAATNLADGVPSRFSGSGSGTQYSLKINSLQSEDFGSYYCQHFWGTPLMFGSGTKLELK
notes: Mouse hybridoma antibody; also called clone 13C3
Question: What does the source list for B11?
Answer: binding result [7]: binds; binding result [28]: binds

B12: 16G5 (antibody, V domains shown)
VH: B11 VH with K13R, S17A, A30T, I54T, S61N, K63N, K66S, Y105F
VL: B11 VL with M4L, S7T, D27E, N53D, S63R, M97T, S100A, K107I
notes: Mouse hybridoma antibody; also called clone 16G5
Question: Does B12 bind [7]?
Answer: Result: binds

Question: Does B12 bind [28]?
Answer: Result: binds
